Values of other authors, collected in PMC11589041.
Values joined by “and” are separate entries in the source; they are usually repeats but may differ in a detail not shown here. Identical values can stand only once.

Tests used:
[1] = target: INF2 DAD DAD (Homo sapiens) (UniProt Q27J81)
[2] = target: mDia1 DAD DAD (Mus musculus) (UniProt O08808)
Chain of mDia1 DAD DAD (Mus musculus) (O08808 1174-1208): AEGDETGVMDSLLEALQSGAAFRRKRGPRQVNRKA

Chain of INF2 DAD DAD (Homo sapiens) (Q27J81 967-1000): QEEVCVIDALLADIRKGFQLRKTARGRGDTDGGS
Chain of INF2 DID DID (Q27J81 1-267): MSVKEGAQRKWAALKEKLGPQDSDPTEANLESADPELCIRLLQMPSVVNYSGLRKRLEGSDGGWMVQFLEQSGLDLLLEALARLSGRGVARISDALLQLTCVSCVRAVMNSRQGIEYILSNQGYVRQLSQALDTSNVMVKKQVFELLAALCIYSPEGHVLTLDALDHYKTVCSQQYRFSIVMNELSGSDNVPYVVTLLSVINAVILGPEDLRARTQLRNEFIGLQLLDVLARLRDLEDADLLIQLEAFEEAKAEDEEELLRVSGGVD
Chain of mDia1 DID DID (O08808 129-369): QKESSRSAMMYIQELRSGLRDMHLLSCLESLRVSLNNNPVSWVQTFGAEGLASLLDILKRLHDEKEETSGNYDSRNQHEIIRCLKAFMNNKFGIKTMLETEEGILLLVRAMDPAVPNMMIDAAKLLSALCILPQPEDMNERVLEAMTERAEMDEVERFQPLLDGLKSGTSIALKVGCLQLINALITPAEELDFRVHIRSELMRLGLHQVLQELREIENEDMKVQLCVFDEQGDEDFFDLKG

| Kd [1] | Kd [2] [µM] | Substance |
| --- | --- | --- |
| 22 µM and 5.4 µM | – | INF2 DID DID (from UniProt Q27J81) |
| – | 0.265 | mDia1 DID DID (from UniProt O08808) |
